The values below come from article PMC8585765, “An OsKala3, R2R3 MYB TF, Is a Common Key Player for Black Rice Pericarp as Main Partner of an OsKala4, bHLH TF” (Frontiers in Plant Science, 2021).

This assay addresses T1, OsKala4 (rice (Oryza sativa), UniProt Q948Y2 1-451).
T1 sequence (looked up): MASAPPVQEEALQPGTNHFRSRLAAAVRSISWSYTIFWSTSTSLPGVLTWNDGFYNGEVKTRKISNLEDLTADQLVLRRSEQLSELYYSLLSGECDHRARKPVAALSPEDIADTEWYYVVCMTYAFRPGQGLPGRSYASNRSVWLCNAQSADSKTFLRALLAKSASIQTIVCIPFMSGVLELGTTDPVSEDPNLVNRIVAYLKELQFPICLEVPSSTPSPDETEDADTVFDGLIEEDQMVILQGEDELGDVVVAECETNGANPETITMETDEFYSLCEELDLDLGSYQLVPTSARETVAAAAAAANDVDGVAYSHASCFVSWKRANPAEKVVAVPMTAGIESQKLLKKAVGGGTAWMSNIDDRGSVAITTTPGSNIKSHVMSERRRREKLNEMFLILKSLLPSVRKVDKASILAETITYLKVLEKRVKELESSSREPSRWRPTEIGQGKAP
Put plainly: cell-based or functional assay.

B1: OsKala3 (natural protein, rice (Oryza sativa), UniProt O23891 1-321, looked up)
chain: MGRKPCCSKEGLNRGAWTAMEDDILVSYIAKHGEGKWGALPKRAGLKRCGKSCRLRWLNYLRPGIKRGNISGDEEELILRLHTLLGNRWSLIAGRLPGRTDNEIKNYWNSTLSKRVAMQRTAAATSMPAAATTSSNADAAGAAARRRRSPEPRTVVVSPIRTKALRCNNNSSSGIVVVQQAGACSHGGRPPESGAPGDAAADKVATPQAVQQQQQQELAGAEDDDDLPVPAVCIDLDLDDIELGGLDGFLISPWRGGGHDDGNAAAGAVPNLPMPIGYKLGGAGGGGEAGAVDLEALLGQLEAEEDDDGDHHHHHHHHHHQ
For the molecule B1, the “dual-luciferase reporter assay in transiently transfected rice protoplasts; proOsCHI:LUC reporter; co-transfection of OsKala3 and OsKala4 compared to OsKala3 alone” value was 4 fold.
